The values that follow come from US20170089895A1.

Assay [1] addresses HNA-1a K138T modified protein (human) (UniProt O75015). The assay can be described thus: Luminex bead assay, protein on microbeads, PE goat anti-human IgG; reference, 1 by definition.
Assay [2] has as its target HNA-1a L136A modified protein (human) (UniProt O75015). The description is as above.
Assay [3] concerns the target HNA-1a W131F modified protein (human) (UniProt O75015). The description is as above.
Assay [4] concerns the target HNA-1b K138T modified protein (human) (UniProt O75015). The description is as above.
The target in assay [5] is HNA-1b L136A modified protein (human) (UniProt O75015). The description is as above.
The target of assay [6] is HNA-1b W131F modified protein (human) (UniProt O75015). Described as above.
For assay [7], the target named is HNA-1c K138T modified protein (human) (UniProt O75015). Described as above.
In assay [8] the target is HNA-1c L136A modified protein (human) (UniProt O75015). The assay is described as above.
Assay [9] has as its target HNA-1c W131F modified protein (human) (UniProt O75015). The description is as above.
The target of assay [10] is Purified HNA-2 protein (CD177) (human) (UniProt Q8N6Q3). The assay is described as above.
UniProt Q8N6Q3, sequence (Q8N6Q3 22-408 limits assumed): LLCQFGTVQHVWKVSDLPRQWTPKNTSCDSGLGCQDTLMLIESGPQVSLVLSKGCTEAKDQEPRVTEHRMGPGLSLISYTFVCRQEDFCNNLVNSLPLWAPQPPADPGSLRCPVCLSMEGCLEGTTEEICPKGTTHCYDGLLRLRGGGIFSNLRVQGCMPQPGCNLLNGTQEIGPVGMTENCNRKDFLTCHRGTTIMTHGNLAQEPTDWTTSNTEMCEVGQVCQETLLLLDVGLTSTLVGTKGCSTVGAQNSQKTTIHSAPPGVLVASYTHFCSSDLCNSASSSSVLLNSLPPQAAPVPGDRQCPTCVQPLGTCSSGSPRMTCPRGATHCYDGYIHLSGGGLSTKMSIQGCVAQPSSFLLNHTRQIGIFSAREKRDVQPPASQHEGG
For assay [11], the target named is Purified HNA-3a protein (CTL2) (human) (UniProt Q8IWA5). Described as above.
UniProt Q8IWA5, sequence (Q8IWA5 whole entry): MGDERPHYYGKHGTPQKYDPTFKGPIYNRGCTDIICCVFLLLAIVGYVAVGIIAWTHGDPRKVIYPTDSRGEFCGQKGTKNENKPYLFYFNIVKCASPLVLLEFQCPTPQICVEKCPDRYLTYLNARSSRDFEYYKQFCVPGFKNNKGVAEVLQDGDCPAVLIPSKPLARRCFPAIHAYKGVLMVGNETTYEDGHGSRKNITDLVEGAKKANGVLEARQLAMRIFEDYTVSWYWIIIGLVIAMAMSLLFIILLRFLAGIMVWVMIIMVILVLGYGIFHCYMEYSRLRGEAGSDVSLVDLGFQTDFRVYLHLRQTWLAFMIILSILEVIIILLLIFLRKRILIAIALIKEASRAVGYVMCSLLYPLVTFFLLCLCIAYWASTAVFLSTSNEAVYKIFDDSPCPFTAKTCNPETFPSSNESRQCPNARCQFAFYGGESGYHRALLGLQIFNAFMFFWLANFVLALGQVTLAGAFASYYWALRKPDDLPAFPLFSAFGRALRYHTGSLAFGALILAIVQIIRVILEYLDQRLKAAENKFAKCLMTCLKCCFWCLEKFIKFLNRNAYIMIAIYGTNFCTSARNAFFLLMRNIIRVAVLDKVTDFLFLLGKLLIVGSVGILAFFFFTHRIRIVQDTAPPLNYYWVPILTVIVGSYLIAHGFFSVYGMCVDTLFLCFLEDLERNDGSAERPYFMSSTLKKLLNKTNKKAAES
The target in assay [12] is wild type HNA-1a protein (Fc gamma receptor type IIIb, FcγRIIIb, CD16b) (human) (UniProt O75015). Described as above.
Assay [13] deals with wild type HNA-1b protein (Fc gamma receptor type IIIb, FcγRIIIb, CD16b) (human) (UniProt O75015). Described as above.
Assay [14] addresses wild type HNA-1c protein (Fc gamma receptor type IIIb, FcγRIIIb, CD16b) (human) (UniProt O75015). The assay is described as above.
Assay [15] deals with HNA-1b K138T modified protein (human) (UniProt O75015). The assay can be described thus: Luminex bead assay, protein on microbeads, negative serum, PE goat anti-human IgG; non-specific IgG background.
In assay [16] the target is HNA-1b L136A modified protein (human) (UniProt O75015). Described as above.
Assay [17] deals with HNA-1b W131F modified protein (human) (UniProt O75015). The description is as above.
For assay [18], the target named is HNA-1c K138T modified protein (human) (UniProt O75015). The description is as above.
In assay [19] the target is HNA-1c L136A modified protein (human) (UniProt O75015). Described as above.
The target of assay [20] is HNA-1c W131F modified protein (human) (UniProt O75015). The description is as above.
The target in assay [21] is wild type HNA-1b protein (Fc gamma receptor type IIIb, FcγRIIIb, CD16b) (human) (UniProt O75015). Described as above.
For assay [22], the target named is wild type HNA-1c protein (Fc gamma receptor type IIIb, FcγRIIIb, CD16b) (human) (UniProt O75015). The description is as above.
Assay [23] concerns the target HNA-1a K138T modified protein (human) (UniProt O75015). The assay can be described thus: Luminex bead assay, protein on microbeads, neat negative serum, PE goat anti-human IgG; non-specific IgG background.
Assay [24] deals with HNA-1a L136A modified protein (human) (UniProt O75015). Described as above.
The target of assay [25] is HNA-1a W131F modified protein (human) (UniProt O75015). The assay is described as above.
For assay [26], the target named is wild type HNA-1a protein (Fc gamma receptor type IIIb, FcγRIIIb, CD16b) (human) (UniProt O75015). The description is as above.
The target of assay [27] is Purified HNA-4a protein (CD11b) (human) (UniProt P11215). The assay can be described thus: Luminex bead assay, protein on microbeads; reference, 1 by definition.
Assay [28] deals with Purified HNA-5a protein (CD11a) (human) (UniProt P20701). Described as above.
UniProt P20701, sequence (P20701 26-1170 limits assumed): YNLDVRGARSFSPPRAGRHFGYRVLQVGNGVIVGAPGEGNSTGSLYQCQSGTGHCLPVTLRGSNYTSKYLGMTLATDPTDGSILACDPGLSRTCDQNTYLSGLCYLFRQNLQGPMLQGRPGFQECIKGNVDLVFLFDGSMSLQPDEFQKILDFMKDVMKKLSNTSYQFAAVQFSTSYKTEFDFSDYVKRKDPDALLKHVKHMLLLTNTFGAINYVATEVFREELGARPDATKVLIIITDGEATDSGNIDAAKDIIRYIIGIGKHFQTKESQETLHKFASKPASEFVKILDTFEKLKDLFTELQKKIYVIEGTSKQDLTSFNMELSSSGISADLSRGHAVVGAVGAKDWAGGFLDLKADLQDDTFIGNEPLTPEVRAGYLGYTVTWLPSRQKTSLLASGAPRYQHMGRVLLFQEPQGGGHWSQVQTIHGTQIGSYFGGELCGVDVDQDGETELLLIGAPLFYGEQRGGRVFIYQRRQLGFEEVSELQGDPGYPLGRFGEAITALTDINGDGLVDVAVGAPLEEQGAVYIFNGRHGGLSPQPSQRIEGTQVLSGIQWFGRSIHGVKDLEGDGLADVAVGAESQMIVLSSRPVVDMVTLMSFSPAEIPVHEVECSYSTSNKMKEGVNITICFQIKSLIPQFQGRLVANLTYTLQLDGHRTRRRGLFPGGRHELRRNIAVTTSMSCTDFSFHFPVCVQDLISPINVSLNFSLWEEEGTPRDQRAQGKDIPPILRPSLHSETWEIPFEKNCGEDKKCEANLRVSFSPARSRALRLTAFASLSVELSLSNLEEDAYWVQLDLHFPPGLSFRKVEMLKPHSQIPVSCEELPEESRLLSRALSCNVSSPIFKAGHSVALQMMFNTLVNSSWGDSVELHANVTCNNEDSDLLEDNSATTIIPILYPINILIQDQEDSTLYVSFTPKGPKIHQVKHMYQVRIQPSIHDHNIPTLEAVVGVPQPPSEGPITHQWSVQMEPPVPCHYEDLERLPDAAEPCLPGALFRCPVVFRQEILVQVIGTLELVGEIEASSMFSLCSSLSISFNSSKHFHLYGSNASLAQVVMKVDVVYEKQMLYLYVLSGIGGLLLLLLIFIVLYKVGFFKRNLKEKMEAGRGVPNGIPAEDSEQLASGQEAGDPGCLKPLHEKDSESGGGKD
For assay [29], the target named is Purified HNA-4a protein (CD11b) (human) (UniProt P11215). Briefly: Luminex bead assay, protein on microbeads; ratio to negative mouse IgG; 6 tests.
Assay [30] addresses Purified HNA-5a protein (CD11a) (human) (UniProt P20701). The assay is described as above.

With Negative Sera (#LSNC) (antibody), the Fold Increased Ratio Against Negative Sera in assay [1], in assay [2], in assay [3], in assay [4], in assay [5] and in [6] was 1 fold throughout. Moreover, the Fold Increased Ratio Against Negative Sera in assay [7], in [8], in assay [9], in assay [12], in [13] and in assay [14] was 1 fold throughout. The detection ratio in assay [10] and in [11] was 1 fold in each case. Besides, the Background Value (MFI) turned out to be 187 MFI in assay [15]; 277 MFI in assay [16]; 183 MFI in assay [17]; 126 MFI in assay [18]; 209 MFI in [19]; 181 MFI in [20]. The Background Value (MFI) in assay [21] came out at 1970 MFI; in assay [22] it was 1500 MFI; in assay [23] it was 450 MFI; in assay [24], 290 MFI; in assay [25], 417 MFI; in [26], 1910 MFI.

Regarding Negative mouse IgG (antibody), the detection ratio in assay [27] and in [28] was 1 fold throughout.

For the substance Positive mouse IgG (#ICRF44) (antibody), the values for the detection ratio in [29] and in [30] were 594 fold and 3 fold, respectively.

In the case of Positive mouse IgG (#TS1/18) (antibody), the detection ratio in assay [29] was found to be 543 fold; in assay [30] it was 5 fold.
